Target: T1, protein A (UniProt P38507 37-477)
T1 construct: also called Protein A superantigen
Experiment: phage ELISA on coated protein A; signal after 80 C 10 min then 4 C 10 min as % of the untreated sample (heat/cool assay)

B1: HEL4 VH (other)
VH: QVQLLESGGGLVQPGGSLRLSCAASGFRISDEDMGWVRQAPGKGLEWVSSIYGPSGSTYYADSVKGRFTISRDNSKNTLYLQMNSLRAEDTAVYYCASALEPLSEPLGFWGQGTLVTVSS
How did the “Retained binding to protein A” value turn out when B1 was run?
The value was 88%.
